Assay results reported in the Human Domainome abundance scans (Beltran et al. 2025).

B1: Death-inducer obliterator 1, residues 263 to 321; numbered along this chain, Q9BTC0 (parent)
chain: GYDPNALYCICRQPHNNRFMICCDRCEEWFHGDCVGISEARGRLLERNGEDYICPNCTI

Variants of: B1
Assay: abundance fitness (aPCA) (normalised: wild type 0, dead -1); higher = more abundant; growth selection in yeast, the domain comes from the species named
Conditions: Homo sapiens

Abundance fitness: each site, then its substitutions
Y52: C -0.275, T -0.03, E -0.172, F 0.009, G -0.357
Y2: A -0.03, K 0.191, V -0.112, Q 0.161
N56: K -0.525, M -0.138, R -0.126, H -0.048
T58: S 0.047, I 0.111, L 0.127, H 0.046, G -0.006, D 0.138
H31: Q -0.782, C -0.282, N -0.765, T -0.956, M -0.667, S -0.776
C22: P 0.02, Y 0.12, Q 0.075, T 0.185, G 0.073
C26: G -0.72, W -0.416, Y -0.794, E -0.632, R -1.02, T -0.782, F -1.06, A -0.411, H -0.672, D -0.808, I -0.578
I21: L -0.051, H -0.4, R -0.156
V35: S -0.403, W -0.61, A -0.058, Y -0.707, D -0.351, T -0.095
Y8: S 0.125, R 0.115, W -0.154, K 0.115, I 0.165, V 0.041
G1: V 0.323, M -0.144, S 0.199, Q -0.167, F 0.058, Y 0.132
L44: F 0.097, C -0.026, A 0.03, H 0.108, P 0.092, M 0.029
G42: W 0.29, D -0.044, V 0.069, E 0.25, R 0.315, Q 0.048, T 0.017, P -0.151, F -0.029
L45: Y -0.055, V 0.016, T -0.08
D33: L -0.047, C -0.013, A -0.154, P -0.136, V -0.198, R -0.002, K -0.028, T 0.008
E39: G -0.217, W -0.143, I -0.226, V -0.036, T -0.213, F -0.043, M -0.21, Q -0.048
I59: W -0.414, F -0.122
E28: N -0.231, C -0.032, V 0.015, S -0.106, H -0.075, Y -0.122, M -0.056, I -0.235, Q -0.198, P -0.742, W -0.019
C34: S -0.867, N -0.937, K -0.763, D -0.376
R43: L 0.029, T -0.049, I 0.081, Q 0.059, G 0.103, M 0.017, Y -0.044
G32: H -0.009, A 0.067, P -0.155, W 0.05, M -0.054, T 0.084, S -0.036, I 0.169, F -0.016, L 0.025
C57: D -0.498, P -0.828, M -0.989, Q -0.842, I -1.06, T -0.509, E -0.483
I10: M 0.035, L -0.105, Y -0.449, A -0.084, H 0.105
R18: A -0.073, D -0.167, N -0.168
I37: F -0.095, G -0.122, L -0.054, K 0.168, S -0.133, E -0.054, P -0.253
E46: A 0.163, R 0.021, P -0.189, T 0.106, C 0.155, I -0.265, K 0.079
N16: G 0.152, F -0.184, L -0.064, K -0.019, P -0.218, Y -0.399, T 0.058, S -0.119
